These results are taken from patent US20190183976A1.

One experiment deals with CXCR4 (human) (UniProt P61073). Nature of the experiment: cell-based or functional assay.
The target of the next experiment is CXCR4-VN (human) (UniProt P61073). Nature of the experiment: BiFC, U-2 OS cells, CXCR4-VN & GPCRx-VC; score=(positive cells/total cells)x100.
Sequence of CXCR4-VN (human) (P61073 whole entry): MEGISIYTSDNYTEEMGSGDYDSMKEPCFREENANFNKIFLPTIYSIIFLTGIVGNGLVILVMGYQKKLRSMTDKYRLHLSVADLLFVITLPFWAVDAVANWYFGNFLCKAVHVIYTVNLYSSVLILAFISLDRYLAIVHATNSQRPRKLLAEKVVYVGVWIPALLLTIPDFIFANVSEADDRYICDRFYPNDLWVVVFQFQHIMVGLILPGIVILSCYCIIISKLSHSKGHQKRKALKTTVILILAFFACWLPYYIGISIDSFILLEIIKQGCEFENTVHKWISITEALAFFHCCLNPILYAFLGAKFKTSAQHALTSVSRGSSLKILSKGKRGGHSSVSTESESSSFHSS

Sequence of CXCR4 (human) (P61073 whole entry): as above
Sequence of CCR5-VC, P51681 1-352 (receptor; other documents disagree on this pair) (P51681 whole entry): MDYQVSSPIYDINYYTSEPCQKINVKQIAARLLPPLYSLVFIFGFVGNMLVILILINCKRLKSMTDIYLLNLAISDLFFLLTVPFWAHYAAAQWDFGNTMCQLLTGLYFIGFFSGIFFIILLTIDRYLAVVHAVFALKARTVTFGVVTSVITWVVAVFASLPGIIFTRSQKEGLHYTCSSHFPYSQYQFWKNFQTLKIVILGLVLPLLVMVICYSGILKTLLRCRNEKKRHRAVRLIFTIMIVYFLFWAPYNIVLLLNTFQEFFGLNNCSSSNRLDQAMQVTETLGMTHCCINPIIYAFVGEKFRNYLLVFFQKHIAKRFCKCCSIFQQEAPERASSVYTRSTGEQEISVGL

12G5 (antibody): in the experiment with CXCR4 (human), the IC50 of Ca2+ response; MDA-MB-231 expressing CXCR4+ADRB2; + carvedilol 10 µM; CXCL12 20 nM + salmeterol 1 µM came to 2.78 nM, the IC50 of Ca2+ response; MDA-MB-231 expressing CXCR4+ADRB2; no carvedilol; CXCL12 20 nM + salmeterol 1 µM worked out at 13.9 nM and the IC50 of Ca2+ response; MDA-MB-231 expressing CXCR4 alone; CXCL12 20 nM + salmeterol 1 µM stood at 80.2 nM.
In the case of TZ14011 (peptide), in the experiment with CXCR4 (human), the IC50 of Ca2+ response; MDA-MB-231 expressing CXCR4+ADRB2; + carvedilol 10 µM; CXCL12 20 nM + salmeterol 1 µM worked out at 0.02 nM, the IC50 of Ca2+ response; MDA-MB-231 expressing CXCR4+ADRB2; no carvedilol; CXCL12 20 nM + salmeterol 1 µM is 17.8 nM, the IC50 of Ca2+ response; MDA-MB-231 expressing CXCR4 alone; CXCL12 20 nM + salmeterol 1 µM came out at 23.9 nM and the fold decrease of the IC50 of Ca2+ response in CXCR4-ADRB2 cells on co-treatment with carvedilol is 890 fold.
For the substance BKT140 (peptide), in the experiment with CXCR4 (human), the IC50 of Ca2+ response; MDA-MB-231 with CXCR4+ADCYAP1R1; CXCL12 20 nM + PACAP-38 1 nM; + M65 1 µM came out at 7.46 nM, the IC50 of Ca2+ response; MDA-MB-231 with CXCR4+ADCYAP1R1; CXCL12 20 nM + PACAP-38 1 nM; + PACAP-(6-38) 1 µM was found to be 19.6 nM, the IC50 of Ca2+ response; MDA-MB-231 with CXCR4+ADCYAP1R1; CXCL12 20 nM + PACAP-38 1 nM; no ADCYAP1R1 inhibitor worked out at 213 nM and the IC50 of Ca2+ response; MDA-MB-231 with CXCR4+C5AR1; CXCL12 20 nM + C5a 0.03 nM; + W54011 10 µM came to 9.72 nM. Besides, in the experiment with CXCR4 (human), the IC50 of Ca2+ response; MDA-MB-231 with CXCR4+C5AR1; CXCL12 20 nM + C5a 0.03 nM; no C5AR1 inhibitor is 118 nM, the IC50 of Ca2+ response; MDA-MB-231 with CXCR4+CALCR; CXCL12 20 nM + calcitonin 100 nM; + CT-(8-32) (salmon) 10 µM was 15.6 nM and the IC50 of Ca2+ response; MDA-MB-231 with CXCR4+CALCR; CXCL12 20 nM + calcitonin 100 nM; no CALCR inhibitor was 1040 nM.
In the experiment with CXCR4-VN (human), “CCR5-VC, P51681 1-352 (receptor; other documents disagree on this pair)” gave a BiFC score of 44.
